Laboratory results as given in the RNAGym collection of RNA variant scans (doi:10.1101/gr.219683.116).

B1: mRNA-splicing (parent)
chain: AGUUGCUGCUGGGAGCUCCAGCACAGUGAAAUGGACAGAAGGGCAGAGCAA

Variants of: B1
Experiment: exon inclusion enrichment index; higher = more inclusion; WT1 exon 5 minigene, HEK293

In order of rising “exon inclusion enrichment index” value:
1. AGUUAGGGAUGGGUUCUCCAGCACAGUGAAAUGGACAGAAGGGCAGAGCAA [G5A C6G U7G C9A A14U G15U]  0.000762
2. AGUUAGGGAUGGGUACUCCAGCACAGUGAAAUGGACAGAAGGGCAGAGCAA [G5A C6G U7G C9A A14U G15A]  0.000793
3. AGUUAGGGAUGGGUCCUCCAGCACAGUGAAAUGGACAGAAGGGCAGAGCAA [G5A C6G U7G C9A A14U G15C]  0.00121
4. AGUUAGUUAUGGGAGCUCCAGCACAGUGAAAUGGACAGAAGGGCAGAGCAA [G5A C6G G8U C9A]  0.00122
5. AGUUAGGGAUGGGAGCUCCGUCACAGUGAAAUGGACAGAAGGGCAGAGCAA [G5A C6G U7G C9A A20G G21U]  0.00168
6. AGUUAGGGAUGGGAGCUCCAGCCUAGUGAAAUGGACAGAAGGGCAGAGCAA [G5A C6G U7G C9A A23C C24U]  0.00192
7. AGUUAGGGAUGGGAGCUCCAGCACAGUGAAAUGGACAGAAGGGCAGAGCAA [G5A C6G U7G C9A]  0.00225
8. AGUUAGGGAUGGGAGCUCCAGCGCAGUGAAAUGGACAGAAGGGCAGAGCAA [G5A C6G U7G C9A A23G]  0.00235
9. AGUUAGGGAUGGGAGCUCCGACACAGUGAAAUGGACAGAAGGGCAGAGCAA [G5A C6G U7G C9A A20G G21A]  0.00277
10. AGUUAGGGAUGGGAGCUCCGCCACAGUGAAAUGGACAGAAGGGCAGAGCAA [G5A C6G U7G C9A A20G G21C]  0.00328
11. AGUUAGUUUUGGGAGCUCCAGCACAGUGAAAUGGACAGAAGGGCAGAGCAA [G5A C6G G8U C9U]  0.00331
12. AGUUAGGGAUGGGAGCUCCAGCCAAGUGAAAUGGACAGAAGGGCAGAGCAA [G5A C6G U7G C9A A23C C24A]  0.00335
13. AGUUAGUGCUGGGAGCUCCAGCACAGUGAAAUGGACAGAAGGGCAGAGCAA [G5A C6G]  0.00371
14. AGUUAGCACAGGGAGCUCCAGCACAGUGAAAUGGACAGAAGGGCAGAGCAA [G5A C6G U7C G8A U10A]  0.00406
15. AGUUAGGGAUGGGAGCUCCAGCCCAGUGAAAUGGACAGAAGGGCAGAGCAA [G5A C6G U7G C9A A23C]  0.00491
16. AGUUAGUAAUGGGAGCUCCAGCACAGUGAAAUGGACAGAAGGGCAGAGCAA [G5A C6G G8A C9A]  0.00571
17. AGUUAAUGCUGGGAGCUCCAGCACAGUGAAAUGGACAGAAGGGCAGAGCAA [G5A C6A]  0.0111
18. AGUUAGAGAAGGGAGCUCCAGCACAGUGAAAUGGACAGAAGGGCAGAGCAA [G5A C6G U7A C9A U10A]  0.0116
19. AGUUAGGGAUGGGAGCUCCAGCCGAGUGAAAUGGACAGAAGGGCAGAGCAA [G5A C6G U7G C9A A23C C24G]  0.0142
20. AGUUAGCUAUGGGAGCUCCAGCACAGUGAAAUGGACAGAAGGGCAGAGCAA [G5A C6G U7C G8U C9A]  0.0245
21. AGUUAGAAAUGGGAGCUCCAGCACAGUGAAAUGGACAGAAGGGCAGAGCAA [G5A C6G U7A G8A C9A]  0.0263
22. AGUUAGUCAUGGGAGCUCCAGCACAGUGAAAUGGACAGAAGGGCAGAGCAA [G5A C6G G8C C9A]  0.0264
23. AGUUAGUGAUGGGAGCUCCAGCACAGUGAAAUGGACAGAAGGGCAGAGCAA [G5A C6G C9A]  0.036
24. AGUUACUGCUGGGAGCUCCAGCACAGUGAAAUGGACAGAAGGGCAGAGCAA [G5A]  0.039
25. AGUGUAAGAAGGGAGCUCCAGCACAGUGAAAUGGACAGAAGGGCAGAGCAA [U4G G5U C6A U7A C9A U10A]  0.0439
26. AGUGUGGGAUGGGAGCUCCAGCACAGUGAAAUGGACAGAAGGGCAGAGCAA [U4G G5U C6G U7G C9A]  0.0442
27. AGUUAGAGAUGGGAGCUCCAGCACAGUGAAAUGGACAGAAGGGCAGAGCAA [G5A C6G U7A C9A]  0.0497
28. AGUUAAAUAUGGGAGCUCCAGCACAGUGAAAUGGACAGAAGGGCAGAGCAA [G5A C6A U7A G8U C9A]  0.0639
29. AGUGUACACAGGGAGCUCCAGCACAGUGAAAUGGACAGAAGGGCAGAGCAA [U4G G5U C6A U7C G8A U10A]  0.093
30. AGUGCACACAGGGAGCUCCAGCACAGUGAAAUGGACAGAAGGGCAGAGCAA [U4G G5C C6A U7C G8A U10A]  0.0964
31. AGUGUCUGCUGGGAGCUCCAGCACAGUGAAAUGGACAGAAGGGCAGAGCAA [U4G G5U]  0.105
32. AGUUAGCGAUGGGAGCUCCAGCACAGUGAAAUGGACAGAAGGGCAGAGCAA [G5A C6G U7C C9A]  0.117
33. AGUGCUAUAUGGGAGCUCCAGCACAGUGAAAUGGACAGAAGGGCAGAGCAA [U4G G5C C6U U7A G8U C9A]  0.157
34. AGUUAGUACCGGGAGCUCCAGCACAGUGAAAUGGACAGAAGGGCAGAGCAA [G5A C6G G8A U10C]  0.184
35. AGUUAAAGAAGGGAGCUCCAGCACAGUGAAAUGGACAGAAGGGCAGAGCAA [G5A C6A U7A C9A U10A]  0.214
36. AGUGCCUGCUGGGAGCUCCAGCACAGUGAAAUGGACAGAAGGGCAGAGCAA [U4G G5C]  0.226
37. AGUUAGAACCGGGAGCUCCAGCACAGUGAAAUGGACAGAAGGGCAGAGCAA [G5A C6G U7A G8A U10C]  0.237
38. AGUUAAUGAUGGGAGCUCCAGCACAGUGAAAUGGACAGAAGGGCAGAGCAA [G5A C6A C9A]  0.239
39. AGUGCGGGAUGGGAGCUCCAGCACAGUGAAAUGGACAGAAGGGCAGAGCAA [U4G G5C C6G U7G C9A]  0.248
40. AGUGUCUUUUGGGAGCUCCAGCACAGUGAAAUGGACAGAAGGGCAGAGCAA [U4G G5U G8U C9U]  0.267
41. AGUGACUUUUGGGAGCUCCAGCACAGUGAAAUGGACAGAAGGGCAGAGCAA [U4G G5A G8U C9U]  0.369
42. AGUUAAAGAUGGGAGCUCCAGCACAGUGAAAUGGACAGAAGGGCAGAGCAA [G5A C6A U7A C9A]  0.386
43. AGUUAGCACCGGGAGCUCCAGCACAGUGAAAUGGACAGAAGGGCAGAGCAA [G5A C6G U7C G8A U10C]  0.446
44. AGUUAAUCUCGGGAGCUCCAGCACAGUGAAAUGGACAGAAGGGCAGAGCAA [G5A C6A G8C C9U U10C]  0.618
45. AGUGCAAGAAGGGAGCUCCAGCACAGUGAAAUGGACAGAAGGGCAGAGCAA [U4G G5C C6A U7A C9A U10A]  0.624
46. AGUGCCUUUUGGGAGCUCCAGCACAGUGAAAUGGACAGAAGGGCAGAGCAA [U4G G5C G8U C9U]  0.642
47. AGUUAGCGCCGGGAGCUCCAGCACAGUGAAAUGGACAGAAGGGCAGAGCAA [G5A C6G U7C U10C]  0.952
48. AGUUAAGACCGGGAGCUCCAGCACAGUGAAAUGGACAGAAGGGCAGAGCAA [G5A C6A U7G G8A U10C]  1.08
49. AGUGAUUCUCGGGAGCUCCAGCACAGUGAAAUGGACAGAAGGGCAGAGCAA [U4G G5A C6U G8C C9U U10C]  1.22
50. AGUUAACACCGGGAGCUCCAGCACAGUGAAAUGGACAGAAGGGCAGAGCAA [G5A C6A U7C G8A U10C]  1.79
51. AGUGUACGACGGGAGCUCCAGCACAGUGAAAUGGACAGAAGGGCAGAGCAA [U4G G5U C6A U7C C9A U10C]  2.56
